Where two headings read alike, the source gives them in different places. Each block holds one binder with its values, some of them ahead of it.
What was measured:
Test in all cases: two-hybrid library CCmax;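 further: natural log of median RNA to DNA barcode read ratio; higher means stronger binding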
4H678-AA = biological target: T1, 4H678-AA; conditions: mean of both orientations
T1 chain: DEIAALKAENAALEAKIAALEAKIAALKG

4H2277-AA = biological target: T2, 4H2277-AA; conditions: mean of both orientations
T2 chain: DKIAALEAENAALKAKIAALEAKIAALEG

4H2837-AA = biological target: T3, 4H2837-AA; conditions: mean of both orientations
T3 chain: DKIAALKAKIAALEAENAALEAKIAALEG

4H3427-AA = biological target: T4, 4H3427-AA; conditions: mean of both orientations
T4 chain: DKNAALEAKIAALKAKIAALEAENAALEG

4H2729-AA = biological target: T5, 4H2729-AA; conditions: mean of both orientations
T5 chain: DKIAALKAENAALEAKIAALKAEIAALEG

4H3606-AA = biological target: T6, 4H3606-AA; conditions: mean of both orientations
T6 chain: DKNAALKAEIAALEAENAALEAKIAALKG

4H2466-AA = biological target: T7, 4H2466-AA; conditions: mean of both orientations
T7 chain: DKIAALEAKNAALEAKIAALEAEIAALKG

4H717-AA = biological target: T8, 4H717-AA; conditions: mean of both orientations
T8 chain: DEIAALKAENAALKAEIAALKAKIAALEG

4H2393-AA = biological target: T9, 4H2393-AA; conditions: mean of both orientations
T9 chain: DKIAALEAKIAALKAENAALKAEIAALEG

4H2617-AA = biological target: T10, 4H2617-AA; conditions: mean of both orientations
T10 chain: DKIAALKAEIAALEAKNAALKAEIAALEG

4H2754-AA = biological target: T11, 4H2754-AA; conditions: mean of both orientations
T11 chain: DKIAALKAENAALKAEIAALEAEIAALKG

4H794-AA = biological target: T12, 4H794-AA; conditions: mean of both orientations
T12 chain: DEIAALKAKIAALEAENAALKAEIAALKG

4H566-AA = biological target: T13, 4H566-AA; conditions: mean of both orientations
T13 chain: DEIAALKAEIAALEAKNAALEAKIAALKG

4H3112-AA = biological target: T14, 4H3112-AA; conditions: mean of both orientations
T14 chain: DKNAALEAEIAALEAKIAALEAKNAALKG

4H2165-AA = biological target: T15, 4H2165-AA; conditions: mean of both orientations
T15 chain: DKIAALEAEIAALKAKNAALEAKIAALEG

4H3343-AA = biological target: T16, 4H3343-AA; conditions: mean of both orientations
T16 chain: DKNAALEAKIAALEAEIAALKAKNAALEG

4H2883-AA = biological target: T17, 4H2883-AA; conditions: mean of both orientations
T17 chain: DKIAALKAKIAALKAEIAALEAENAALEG

4H2354-AA = biological target: T18, 4H2354-AA; conditions: mean of both orientations
T18 chain: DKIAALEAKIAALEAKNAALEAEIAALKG

4H3655-AA = biological target: T19, 4H3655-AA
T19 chain: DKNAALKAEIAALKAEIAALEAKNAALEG

4H2944-AA = biological target: T20, 4H2944-AA; conditions: mean of both orientations
T20 chain: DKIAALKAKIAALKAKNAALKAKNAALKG

4H2151-AA = biological target: T21, 4H2151-AA
T21 chain: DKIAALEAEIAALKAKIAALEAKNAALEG

4H993-AA = biological target: T22, 4H993-AA; conditions: mean of both orientations
T22 chain: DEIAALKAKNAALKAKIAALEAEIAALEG

4H454-AA = biological target: T23, 4H454-AA; conditions: mean of both orientations
T23 chain: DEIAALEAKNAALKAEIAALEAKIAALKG

4H3627-AA = biological target: T24, 4H3627-AA; conditions: mean of both orientations
T24 chain: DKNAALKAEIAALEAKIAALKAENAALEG

4H3844-AA = biological target: T25, 4H3844-AA; conditions: mean of both orientations
T25 chain: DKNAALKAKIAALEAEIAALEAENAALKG

4H429-AA = biological target: T26, 4H429-AA; conditions: mean of both orientations
T26 chain: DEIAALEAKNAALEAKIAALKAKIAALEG

4H342-AA = biological target: T27, 4H342-AA; conditions: mean of both orientations
T27 chain: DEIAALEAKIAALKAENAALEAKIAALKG

4H48-AA = biological target: T28, 4H48-AA; conditions: mean of both orientations
T28 chain: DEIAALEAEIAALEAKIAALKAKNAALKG

4H906-AA = biological target: T29, 4H906-AA; conditions: mean of both orientations
T29 chain: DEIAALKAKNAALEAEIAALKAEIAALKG

4H317-AA = biological target: T30, 4H317-AA; conditions: mean of both orientations
T30 chain: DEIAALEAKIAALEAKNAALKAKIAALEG

4H234-AA = biological target: T31, 4H234-AA; conditions: mean of both orientations
T31 chain: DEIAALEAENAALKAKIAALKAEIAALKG

4H2642-AA = biological target: T32, 4H2642-AA; conditions: mean of both orientations
T32 chain: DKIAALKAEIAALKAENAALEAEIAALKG

4H881-AA = biological target: T33, 4H881-AA; conditions: mean of both orientations
T33 chain: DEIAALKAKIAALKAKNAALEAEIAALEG

4H2190-AA = biological target: T34, 4H2190-AA; conditions: mean of both orientations
T34 chain: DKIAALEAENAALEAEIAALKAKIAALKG

4H2505-AA = biological target: T35, 4H2505-AA; conditions: mean of both orientations
T35 chain: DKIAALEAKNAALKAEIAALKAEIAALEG

4H2949-AA = biological target: T36, 4H2949-AA; conditions: mean of both orientations
T36 chain: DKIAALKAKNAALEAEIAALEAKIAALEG

4H605-AA = biological target: T37, 4H605-AA; conditions: mean of both orientations
T37 chain: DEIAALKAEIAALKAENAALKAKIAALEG

4H249-AA = biological target: T38, 4H249-AA
T38 chain: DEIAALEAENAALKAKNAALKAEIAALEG

4H2575-AA = biological target: T39, 4H2575-AA; conditions: mean of both orientations
T39 chain: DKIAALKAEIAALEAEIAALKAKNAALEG

4H335-AA = biological target: T40, 4H335-AA; conditions: mean of both orientations
T40 chain: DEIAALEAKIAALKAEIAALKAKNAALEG

4H3921-AA = biological target: T41, 4H3921-AA; conditions: mean of both orientations
T41 chain: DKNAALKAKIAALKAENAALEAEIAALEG

4H780-AA = biological target: T42, 4H780-AA; conditions: mean of both orientations
T42 chain: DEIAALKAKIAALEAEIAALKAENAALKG

4H2078-AA = biological target: T43, 4H2078-AA
T43 chain: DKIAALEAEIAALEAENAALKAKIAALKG

interaction score (4H678-AA): -1.37
interaction score (4H2277-AA): -1.38
interaction score (4H2837-AA): -1.4
interaction score (4H3427-AA): -1.02
interaction score (4H2729-AA): -0.63
interaction score (4H3606-AA): -1.24
interaction score (4H2466-AA): -1.42
interaction score (4H717-AA): -1.61
interaction score (4H2393-AA): -1.54
interaction score (4H2617-AA): -0.476
interaction score (4H2754-AA): -1.27
interaction score (4H794-AA): -1.95
interaction score (4H566-AA): -1.47
interaction score (4H3112-AA): -0.356
interaction score (4H2165-AA): -0.932
interaction score (4H3343-AA): -1.19
interaction score (4H2883-AA): 0.105
interaction score (4H2354-AA): -1.44
interaction score (4H3655-AA; mean of both orientations): -0.942
interaction score (4H2944-AA): -1.39
interaction score (4H2151-AA): 1.45
interaction score (4H993-AA): -1.43
interaction score (4H454-AA): -1.11
interaction score (4H3627-AA): -0.182
interaction score (4H3844-AA): -0.871
interaction score (4H429-AA): -1.48
interaction score (4H342-AA): -1.26
interaction score (4H48-AA): 0.747
interaction score (4H906-AA): -1.28
interaction score (4H317-AA): -0.983
interaction score (4H234-AA): -1.58
interaction score (4H2642-AA): -1.42
interaction score (4H881-AA): -1.51
interaction score (4H2190-AA): -1.15
interaction score (4H2505-AA): -1.6
interaction score (4H2949-AA): -0.904
interaction score (4H605-AA): -1.4
Binder: DKIAALEAEIAALKAKIAALEAKNAALEG [4H2151-AA]

interaction score (4H249-AA): 0.347
interaction score (4H678-AA): -0.466
interaction score (4H2277-AA): -1.09
interaction score (4H2837-AA): 1.93
interaction score (4H2575-AA): -0.721
interaction score (4H3427-AA): -0.664
interaction score (4H335-AA): 0.35
interaction score (4H2729-AA): 0.661
interaction score (4H3606-AA): -0.297
interaction score (4H3921-AA): 2.02
interaction score (4H2466-AA): -0.982
interaction score (4H717-AA): -1.62
interaction score (4H2393-AA): 2.47
interaction score (4H2617-AA): 2.35
interaction score (4H2754-AA): 0.637
interaction score (4H794-AA): 1.84
interaction score (4H566-AA): -1.05
interaction score (4H3112-AA): -0.952
interaction score (4H2165-AA): 0.246
interaction score (4H3343-AA): -1.08
interaction score (4H2883-AA): 0.158
interaction score (4H2354-AA): -0.00435
interaction score (4H3655-AA): -1.22
interaction score (4H2944-AA): 0.298
interaction score (4H2151-AA; mean of both orientations): -1.39
interaction score (4H993-AA): -1.03
interaction score (4H454-AA): -0.599
interaction score (4H3627-AA): -0.14
interaction score (4H3844-AA): -0.801
interaction score (4H429-AA): 1.79
interaction score (4H342-AA): 2.14
interaction score (4H48-AA): 0.504
interaction score (4H780-AA): -1.14
interaction score (4H906-AA): -0.59
interaction score (4H317-AA): 1.93
interaction score (4H234-AA): -0.505
interaction score (4H2642-AA): 2.25
interaction score (4H881-AA): 2.31
interaction score (4H2190-AA): 1.33
interaction score (4H2078-AA): 1.98
interaction score (4H2505-AA): 1.62
interaction score (4H2949-AA): -1.02
interaction score (4H605-AA): 1.68
Binder: DKIAALEAEIAALEAENAALKAKIAALKG [4H2078-AA]

From publication PMC10397247
